Test results from US20190055314A1 (ADAGENE, published 2019).
Like-named read-outs stand apart in the source and are kept apart here.

Experiments:
[1] = target: T1, CD137-hisFc fusion protein (Sino Biological Cat 10041-H03H) (human, UniProt Q07011 24-186); test: BLI Octet, Fab
T1 construct: Bought; also called recombinant human CD137 (fused with human Fc and His tag); not shown: His tag and human Fc

[2] = target: T1, CD137-hisFc fusion protein (Sino …); test: BLI Octet, Fab; remark: listed apart in the source

Binder	Kd [1] [nM]	koff [1] [s⁻¹]	kon [1] [M⁻¹ s⁻¹]	Kd [2] [nM]	koff [2] [s⁻¹]	kon [2] [M⁻¹ s⁻¹]
Fab 5359 (Fab, V domains shown, Fab from E. coli; also called VH27/VL27) VH: EVQLVESGGGLVQPGGSLRLSCAASGFSLSTSGVGVGWIRQAPGKGLEWLALIDWADDKYYSPSLKSRLTISRDNSKNTLYLQLNSLRAEDTAVYYCARGGSDAVLGDWFAYWGQGTLVTVSS VL: DIQLTQSPSSLSASVGDRVTITCRASQGIGSYLAWYQQKPGKAPKLLIYDASNLETGVPSRFSGSGSGTDFTLTISSLQPEDFATYYCQQGYSIWTFGQGTKVEIKR	0.71	0.00033	464000	0.71	0.00033	460000
Fab 5413 (Fab, V domains shown, Fab from E. coli; also called VH38/VL38) VH: EVQLVESGGGLVQPGGSLRLSCAASGFSLSTGGVAVGWIRQAPGKGLEWLALIDWDGDKSYSTSLKSRLTISRDNSKNTLYLQLNSLRAEDTAVYYCAREGSTAVVGDWFDYWGQGTLVTVSS VL: DIQLTQSPSSLSASVGDRVTITCRASQGISRYLAWYQQKPGKAPKLLIYDASNRATGIPSRFSGSGSGTDFTLTISSLQPEDFATYYCQQGYSLWTFGQGTKVEIKR	0.993	0.000551	555000	0.99	0.00055	560000
Fab 5408 (Fab, V domains shown, Fab from E. coli; also called VH36/VL36) VH: EVQLVESGGGLVQPGGSLRLSCAASGYSITSGYHWSWIRQAPGKGLEWVSSISGYGDTTYYADSVKGRFTISRDNSKNTLYLQLNSLRAEDTAVYYCAREGSDTVLGDWFAYWGQGTLVTVSS VL: DIQLTQSPSSLSASVGDRVTITCQASQDIRTYLAWYQQKPGKAPKLLIYDASNLETGVPSRFSGSGSGTDFTLTISSLQPEDFATYYCQQGYSIWTFGQGTKVEIKR	23.6	0.0075	318000	24	0.0075	320000
Fab 5342 (Fab, V domains shown, Fab from E. coli; also called VH21/VL21) VH: EVQLVESGGGLVQPGGSLRLSCAASGFSLSTGGVAVGWIRQAPGKGLEWLALIDWAGDKSYSTSLKSRLTISRDNSKNTLYLQLNSLRAEDTAVYYCAREGEDAVTGDWFAYWGQGTLVTVSS VL: DIQLTQSPSSLSASVGDRVTITCQASQDIRTYLAWYQQKPGKAPKLLIYDASNRATGIPSRFSGSGSGTDFTLTISSLQPEDFATYYCQQGYSIWTFGQGTKVEIKR	38.9	0.00612	157000	39	0.0061	160000
Fab 5318 (Fab, V domains shown, Fab from E. coli; also called VH18/VL18) VH: EVQLVESGGGLVQPGGSLRLSCAASGFSLSTSGVAVGWIRQAPGKGLEWLALIDWDDDKYYSTSLKSRLTISRDNSKNTLYLQLNSLRAEDTAVYYCAREGSTAVAGDWFAYWGQGTLVTVSS VL: DIQLTQSPSSLSASVGDRVTITCQASQDIRTFLAWYQQKPGKAPKLLIYDASNRATGIPSRFSGSGSGTDFTLTISSLQPEDFATYYCQQGYSTWTFGQGTKVEIKR	19	0.00269	141000	19	0.0027	140000
Fab 5314 (Fab, V domains shown, Fab from E. coli; also called VH16/VL16) VH: EVQLVESGGGLVQPGGSLRLSCAASGFSLSTGGVAVGWIRQAPGKGLEWLALIDWAGDKSYSTSLKSRLTISRDNSKNTLYLQLNSLRAEDTAVYYCARGGSDTVLGDWFAYWGQGTLVTVSS VL: DIQLTQSPSSLSASVGDRVTITCRASQGVSPYLAWYQQKPGKAPKLLIYDASNRATGIPSRFSGSGSGTDFTLTISSLQPEDFATYYCQQGYSTWTFGQGTKVEIKR	8.39	0.00177	210000	8.4	0.0018	210000
Fab 4217 (Fab, V domains shown, Fab from E. coli; also called VH10/VL10) VH: EVQLVESGGGLVQPGGSLRLSCAASGYSISSGYYWDWIRQAPGKGLEWVSSISGDGDTTYYADSVKGRFTISRDNSKNTLYLQLNSLRAEDTAVYYCAREYYGYGYALDYWGQGTLVTVSS VL: DIQLTQSPSSLSASVGDRVTITCRASQGISSYLAWYQQKPGKAPKLLIYDASSLESGVPSRFSGSGSGTDFTLTISSLQPEDFATYYCQQYYSTPLTFGQGTKVEIKR	96.7	0.0545	564000	97	0.055	560000
Fab 4074 (Fab, V domains shown, Fab from E. coli) VH: EVQLVESGGGLVQPGGSLRLSCAASGFSLSTGGVGVSWIRQAPGKGLEWVSSISGSGGTTYYADSVKGRFTISRDNSKNTLYLQLNSLRAEDTAVYYCARDDLYSWYFDVWGQGTLVTVSS VL: DIQLTQSPSSLSASVGDRVTITCRASQGIGSSLAWYQQKPGKAPKLLIYAASSLQSGVPSRFSGSGSGTDFTLTISSLQPEDFATYYCQQGYYTWTFGQGTKVEIKR	19.5	0.000937	48000	20	0.00094	48000
Fab 5300 (Fab, V domains shown, Fab from E. coli; also called VH12/VL12) VH: EVQLVESGGGLVQPGGSLRLSCAASGYTFSNYWIHWVRQAPGKGLEWVSYISGDGDTTYYADSVKGRFTISRDNSKNTLYLQLNSLRAEDTAVYYCAREGSTTVAGDWFAYWGQGTLVTVSS VL: DIQLTQSPSSLSASVGDRVTITCRASQGIGSFLGWYQQKPGKAPKLLIYDASSLESGVPSRFSGSGSGTDFTLTISSLQPEDFATYYCQQYYSLVTFGQGTKVEIKR	15.3	0.0091	596000	15	0.0091	600000
Fab 5299 (Fab, V domains shown, Fab from E. coli; also called VH11/VL11) VH: EVQLVESGGGLVQPGGSLRLSCAASGYSISSGHYWGWIRQAPGKGLEWLALIDWYGDKYYSTSLKSRLTISRDNSKNTLYLQLNSLRAEDTAVYYCARSDYYGSHFDYWGQGTLVTVSS VL: DIQLTQSPSSLSASVGDRVTITCRASESVDFDGFSFLAWYQQKPGKAPKLLIYDASNLETGVPSRFSGSGSGTDFTLTISSLQPEDFATYYCQQYDTLPRTFGQGTKVEIKR	13.7	0.0076	555000	14	0.0076	560000

The remaining binders from weak to strong by Kd [1], led by results:

Kd [1] [nM]	koff [1] [s⁻¹]	kon [1] [M⁻¹ s⁻¹]	Kd [2] [nM]	koff [2] [s⁻¹]	kon [2] [M⁻¹ s⁻¹]	Binder
6.95	0.00107	154000	7	0.0011	150000	Fab 4072 (Fab, V domains shown, Fab from E. coli; also called VH2/VL2) VH: EVQLVESGGGLVQPGGSLRLSCAASGFSLSTSGVAVSWIRQAPGKGLEWIGIINPNFGDTNYAQKFQGRVTISRDNSKNTLYLQLNSLRAEDTAVYYCARDEYYGGSYYFDYWGQGTLVTVSS VL: DIQLTQSPSSLSASVGDRVTITCRASQDVRTAVAWYQQKPGKAPKLLIYDASNLETGVPSRFSGSGSGTDFTLTISSLQPEDFATYYCQQSYDWPPTFGQGTKVEIKR
5.72	0.00465	813000	5.7	0.0047	810000	Fab 5310 (Fab, V domains shown, Fab from E. coli; also called VH15/VL15) VH: EVQLVESGGGLVQPGGSLRLSCAASGFSLSTSGVGVGWIRQAPGKGLEWLALIDWDDDKYYSPSLKSRLTISRDNSKNTLYLQLNSLRAEDTAVYYCARGGSDTVLGDWFAYWGQGTLVTVSS VL: DIQLTQSPSSLSASVGDRVTITCRASQSVSPYLAWYQQKPGKAPKLLIYDASSLESGVPSRFSGSGSGTDFTLTISSLQPEDFATYYCQQGYSLWTFGQGTKVEIKR
5.12	0.00509	995000	5.1	0.0051	1e+06	Fab 5303 (Fab, V domains shown, Fab from E. coli; also called VH14/VL14) VH: EVQLVESGGGLVQPGGSLRLSCAASGFSLSTSGVAVGWIRQAPGKGLEWLALIDWADDKYYSPSLKSRLTISRDNSKNTLYLQLNSLRAEDTAVYYCAREGSDAVLGDWFAYWGQGTLVTVSS VL: DIQLTQSPSSLSASVGDRVTITCRASQDISTFLAWYQQKPGKAPKLLIYDASSLESGVPSRFSGSGSGTDFTLTISSLQPEDFATYYCQQAYSIWTFGQGTKVEIKR
3.3	0.0013	395000	3.3	0.0013	400000	Fab 5404 (Fab, V domains shown, Fab from E. coli; also called VH34/VL34) VH: EVQLVESGGGLVQPGGSLRLSCAASGYSISSGYHWAWIRQAPGKGLEWIGEIYHSGSTYYSPSLKSRVTISRDNSKNTLYLQLNSLRAEDTAVYYCARSPYYYGVFDYWGQGTLVTVSS VL: DIQLTQSPSSLSASVGDRVTITCSASSRVGSVYWYQQKPGKAPKLLIYDASNLETGVPSRFSGSGSGTDFTLTISSLQPEDFATYYCQQYTHDPVTFGQGTKVEIKR
2.56	0.00179	701000	2.6	0.0018	700000	Fab 5365 (Fab, V domains shown, Fab from E. coli; also called VH30/VL30) VH: EVQLVESGGGLVQPGGSLRLSCAASGFSLSTGGVGVGWIRQAPGKGLEWLALIDWADDKYYSPSLKSRLTISRDNSKNTLYLQLNSLRAEDTAVYYCARGGSDTVIGDWFAYWGQGTLVTVSS VL: DIQLTQSPSSLSASVGDRVTITCRASQSIGSYLAWYQQKPGKAPKLLIYDASNLETGVPSRFSGSGSGTDFTLTISSLQPEDFATYYCQQGYYLWTFGQGTKVEIKR
1.91	0.001	524000	1.9	0.001	520000	Fab 5370 (Fab, V domains shown, Fab from E. coli; also called VH32/VL32) VH: EVQLVESGGGLVQPGGSLRLSCAASGFSLSTSGVAVAWIRQAPGKGLEWLALIDWDDDKRYSTSLKSRLTISRDNSKNTLYLQLNSLRAEDTAVYYCAREGSTTVVGDWFDYWGQGTLVTVSS VL: DIQLTQSPSSLSASVGDRVTITCRASQGIGTYLAWYQQKPGKAPKLLIYDASNRATGIPSRFSGSGSGTDFTLTISSLQPEDFATYYCQQGYSLWTFGQGTKVEIKR
1.21	0.000426	354000	1.2	0.00043	350000	Fab 5302 (Fab, V domains shown, Fab from E. coli; also called VH13/VL13) VH: EVQLVESGGGLVQPGGSLRLSCAASGFSLSTGGVGVAWIRQAPGKGLEWVSSISGYGSTTYYADSVKGRFTISRDNSKNTLYLQLNSLRAEDTAVYYCAREGSDAVLGDWFGYWGQGTLVTVSS VL: DIQLTQSPSSLSASVGDRVTITCQASQDITTYLAWYQQKPGKAPKLLIYDASNRATGIPSRFSGSGSGTDFTLTISSLQPEDFATYYCQQGYYLWTFGQGTKVEIKR
